Reference: patent US20250109203A1
Residue numbers refer to the chain shown, from its start.

Tests used:
[1] = biological target: human γδ TCR (Vγ9Vδ2) on human Vδ2+ γδ T cells (human) (UniProt A0JD36); assay: flow cytometry, monomeric VHH-hIgG1 Fc fusion on expanded human Vδ2+ γδ T cells, anti-human Fc A647, MFI
[2] = biological target: human γδ TCR (Vγ9Vδ2) on human Vδ2+ γδ T cells (human) (UniProt A0JD36); assay: flow cytometry on expanded human Vδ2+ γδ T cells, nonlinear fit; from data in FIG. 6K
[3] = biological target: human γδ TCR (Vγ9Vδ2) on human Vδ2+ γδ T cells (human) (UniProt A0JD36); assay: flow cytometry on expanded human Vδ2+ γδ T cells, nonlinear fit; from data in FIG. 6J
[4] = biological target: human γδ TCR (Vγ9Vδ2) on human Vδ2+ γδ T cells (human) (UniProt A0JD36); assay: flow cytometry, monomeric VHH-hIgG1 Fc fusion on expanded human Vδ2+ γδ T cells, anti-human Fc A647, MFI; remark: listed apart in the source
[5] = biological target: human γδ TCR (Vγ9Vδ2) on human Vδ2+ γδ T cells (human) (UniProt A0JD36); assay: flow cytometry on zoledronate-expanded human γδ T cells gated Vδ2+, anti-VHH Alexa647, MdFI
[6] = biological target: cynomolgus monkey γδ TCR on cynomolgus Vγ9+ γδ T cells (cynomolgus monkey); assay: flow cytometry on expanded cynomolgus γδ T cells gated Vγ9+, anti-human Fcγ A647, MdFI
[7] = biological target: human γδ TCR (Vγ9Vδ2) on human Vδ2+ γδ T cells (human) (UniProt A0JD36); assay: flow cytometry on expanded human Vδ2+ γδ T cells, nonlinear fit

B1: hu1D7v158 VHH-hIgG1 Fc-NNT (monomeric) (VHH)
VHH: EVQLLESGGGEVQPGGSLRLSCVASRGKISQYRMGWYRQAPGKQRELVAHISNTGDAAEYVAPVKGRFTISRDNAKNALYLQMNSLRAEDTAVYKCNTVEDILAWGQGTLVTVEP
B1 gave an EC50 (read off the curve) [1] of 6 nM, a Kd [2] of 2.96 nM and a Kd [3] of 6.54 nM. It also gave an EC50 (read off the curve) [4] of 3 nM.

B2: 1D7×HSA×IL-2_X (anti-γδTCR-1D7 VHH - anti-HSA VHH - IL-2_X) (protein, part only; not given: anti-albumin VHH and linkers, part only)
chain, part: QVQLVQSGGGLVQPGGSLRLSCVASRGKISQYRMGWYRQAPGKQRELVAHISNTGDAAEYVDSVKGRFTISRDSTKNAVYLQMNSLKPEDTAVYKCNSVEDILAWGQGTQVTVKPAPASSSTKKTQLQLEALLLDLQMILNGINNYKNPKLTRMLTFKFYMPKKATELKHLQCLERELKRLEEVLNLAQSKNFHLRPRYLISNINVIVLELKGSETTFMCEYADETATIVEFLNRWITFSQSIISTLT
B2 was tested, and the EC50 (read off the curve) [5] was 5 nM.

B3: 1D7v158×HSA×IL-2_X (h1D7v158 VHH - anti-HSA VHH - IL-2_X) (protein, part only; not given: anti-albumin VHH and linkers, part only)
chain, part: EVQLLESGGGEVQPGGSLRLSCVASRGKISQYRMGWYRQAPGKQRELVAHISNTGDAAEYVAPVKGRFTISRDNAKNALYLQMNSLRAEDTAVYKCNTVEDILAWGQGTLVTVEPAPASSSTKKTQLQLEALLLDLQMILNGINNYKNPKLTRMLTFKFYMPKKATELKHLQCLERELKRLEEVLNLAQSKNFHLRPRYLISNINVIVLELKGSETTFMCEYADETATIVEFLNRWITFSQSIISTLT
Work on B3 yielded an EC50 (read off the curve) [5] of 4 nM.

B4: bivalent 1D7 VHH-human IgG1 Fc xELL fusion (VHH)
VHH: QVQLVQSGGGLVQPGGSLRLSCVASRGKISQYRMGWYRQAPGKQRELVAHISNTGDAAEYVDSVKGRFTISRDSTKNAVYLQMNSLKPEDTAVYKCNSVEDILAWGQGTQVTVKP
B4 was tested, and the EC50 (read off the curve) [6] was 0.3 nM.

B5: hu1D7v3 VHH-hIgG1 Fc-NNT (monomeric) (VHH)
VHH: EVQLLESGGGEVQPGGSLRLSCVASGGKISQYRMGWYRQAPGKGLEWVAHISNTGDAAEYVDSVKGRFTISRDSTKNAVYLQMSSLRAEDTAVYKCNSVEDILAWGQGTLVTVKP
Binder B5 has a Kd [7] of 51.1 nM and an EC50 (read off the curve) [1] of 20 nM.

B6: hu1D7v5 VHH-hIgG1 Fc-NNT (monomeric) (VHH)
VHH: B5 VHH with G26R, K28T
Work on B6 yielded a Kd [7] of 108 nM and an EC50 (read off the curve) [1] of 30 nM.

B7: hu1D7v85 VHH-hIgG1 Fc-NNT (monomeric) (VHH)
VHH: B5 VHH with G26R, G44E, L45R, W47L, D62S, S63G, G66D, V79L, K114R
In the case of B7, the Kd [7] is reported as 168 nM and the EC50 (read off the curve) [1] is reported as 70 nM.

B8: hu1D7v86 VHH-hIgG1 Fc-NNT (monomeric) (VHH)
VHH: B5 VHH with G26R, G44E, L45R, W47L, D62G, S63G, G66D, V79L, K114R
For B8, the Kd [7] was 126 nM and the EC50 (read off the curve) [1] was 60 nM.

B9: hu1D7v99 VHH-hIgG1 Fc-NNT (monomeric) (VHH)
VHH: B5 VHH with G26R, G44E, L45R, W47L, D62S, G66D, V79L, K114R
Work on B9 yielded a Kd [7] of 116 nM and an EC50 (read off the curve) [1] of 60 nM.

B10: hu1D7v98 VHH-hIgG1 Fc-NNT (monomeric) (VHH)
VHH: B5 VHH with G26R, G44E, L45R, W47L, D62L, G66D, V79L, K114R
Binder B10 has a Kd [7] of 114 nM.

B11: hu1D7v100 VHH-hIgG1 Fc-NNT (monomeric) (VHH)
VHH: B5 VHH with G26R, G44E, L45R, W47L, G66D, V79L, K95Y, K114R
B11 gave a Kd [7] of 61.9 nM.

B12: hu1D7v101 VHH-hIgG1 Fc-NNT (monomeric) (VHH)
VHH: B5 VHH with G26R, G44E, L45R, W47L, G66D, V79L, N97A, S98A, K114R
With B12 the Kd [7] was 270 nM.

B13: hu1D7v102 VHH-hIgG1 Fc-NNT (monomeric) (VHH)
VHH: B5 VHH with G26R, G44E, G66D, V79L, S98T, K114R
B13 was tested, and the Kd [7] was 18 nM.

B14: 1D7v112 VHH-hIgG1 Fc-NNT (monomeric) (VHH)
VHH: B5 VHH with G26R, G44E, L45R, W47L, S63V, G66D, V79L, K114R
With B14 the Kd [7] was 226 nM.

B15: 1D7v113 VHH-hIgG1 Fc-NNT (monomeric) (VHH)
VHH: B5 VHH with G26R, G44E, L45R, W47L, S63L, G66D, V79L, K114R
For B15, the Kd [7] was 192 nM.

B16: 1D7v124 VHH-hIgG1 Fc-NNT (monomeric) (VHH)
VHH: B5 VHH with G26R, G44E, L45R, W47L, S63G, G66D, V79L, K114R
In the case of B16, the Kd [7] is reported as 72.2 nM.

B17: 1D7v125 VHH-hIgG1 Fc-NNT (monomeric) (VHH)
VHH: B5 VHH with G26R, G44E, L45R, W47L, D62E, S63G, G66D, V79L, K114R
B17 gave a Kd [7] of 59 nM.

B18: 1D7v139 VHH-hIgG1 Fc-NNT (monomeric) (VHH)
VHH: B5 VHH with G26R, G44E, L45R, W47L, D62L, G66D, V79L, K114R
Work on B18 yielded a Kd [7] of 341 nM.

B19: hu1D7v158-1 VHH-hIgG1 Fc-NNT (monomeric) (VHH)
VHH: B1 VHH with Y37V
Work on B19 yielded a Kd [7] of 205 nM.

B20: hu1D7v158-2 VHH-hIgG1 Fc-NNT (monomeric) (VHH)
VHH: B1 VHH with A49S
Binder B20 has a Kd [7] of 3.28 nM.

B21: hu1D7v10 VHH-hIgG1 Fc-NNT (monomeric) (VHH)
VHH: B5 VHH with G26R, A49S
B21 was tested, and the Kd [7] was 60.9 nM.

B22: hu1D7v158-3 VHH-hIgG1 Fc-NNT (monomeric) (VHH)
VHH: B1 VHH with H50A
B22 showed a Kd [7] of 28 nM.

B23: hu1D7v158-4 VHH-hIgG1 Fc-NNT (monomeric) (VHH)
VHH: B1 VHH with V61A
In the case of B23, the Kd [7] is reported as 3.13 nM.

B24: hu1D7v158-5 VHH-hIgG1 Fc-NNT (monomeric) (VHH)
VHH: B1 VHH with A62E
With B24 the Kd [7] was 2.82 nM.

B25: hu1D7v158-6 VHH-hIgG1 Fc-NNT (monomeric) (VHH)
VHH: B1 VHH with P63S
In the case of B25, the Kd [7] is reported as 2.82 nM.

B26: hu1D7v158-7 VHH-hIgG1 Fc-NNT (monomeric) (VHH)
VHH: B1 VHH with A78T
For B26, the Kd [7] was 3.47 nM.

B27: hu1D7v158-8 VHH-hIgG1 Fc-NNT (monomeric) (VHH)
VHH: B1 VHH with V61A, A62E, P63S
B27 showed a Kd [7] of 2.93 nM.

B28: hu1D7v158-9 VHH-hIgG1 Fc-NNT (monomeric) (VHH)
VHH: B1 VHH with Q44E, L47F
B28 was tested, and the Kd [7] was 20 nM.

B29: hu1D7v158-10 VHH-hIgG1 Fc-NNT (monomeric) (VHH)
VHH: B1 VHH with K95Y
B29 was tested, and the Kd [7] was 4.97 nM.
